Experimental data as given in the supplement of paper PMC9876800.

Tested on: peptide library, one residue held at a place counted from the S/T acceptor
Test: relative phosphorylation of the sub-library (ratio to the mean residue at this position); higher = residue favoured
Details: human
In short: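 Relative sub-library phosphorylation is the ratio of each sub-library's signal to the mean residue at that position. The signal came from phosphorimaging of spots on streptavidin membranes, quantified by densitometry, after purified recombinant kinases reacted with biotinylated degenerate peptide sub-libraries in 384-well plates. Reactions held 50 μM peptide and 50 μM ATP spiked with γ-32P-ATP for 90 min under kinase-specific conditions.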

Sequence of MYO3B, construct: aa1-326 (Q8WXR4 1-326, looked up): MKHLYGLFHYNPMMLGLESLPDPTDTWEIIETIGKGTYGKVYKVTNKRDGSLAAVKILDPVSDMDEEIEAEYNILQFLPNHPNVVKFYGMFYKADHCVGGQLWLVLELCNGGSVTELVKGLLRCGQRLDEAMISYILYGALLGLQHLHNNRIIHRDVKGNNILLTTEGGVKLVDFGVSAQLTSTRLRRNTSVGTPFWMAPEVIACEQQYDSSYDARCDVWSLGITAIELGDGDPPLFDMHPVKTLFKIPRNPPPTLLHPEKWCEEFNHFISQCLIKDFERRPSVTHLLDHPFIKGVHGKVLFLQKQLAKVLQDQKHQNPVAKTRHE
Sequence of PRKAA1, construct: Full length (Q13131 whole entry, looked up): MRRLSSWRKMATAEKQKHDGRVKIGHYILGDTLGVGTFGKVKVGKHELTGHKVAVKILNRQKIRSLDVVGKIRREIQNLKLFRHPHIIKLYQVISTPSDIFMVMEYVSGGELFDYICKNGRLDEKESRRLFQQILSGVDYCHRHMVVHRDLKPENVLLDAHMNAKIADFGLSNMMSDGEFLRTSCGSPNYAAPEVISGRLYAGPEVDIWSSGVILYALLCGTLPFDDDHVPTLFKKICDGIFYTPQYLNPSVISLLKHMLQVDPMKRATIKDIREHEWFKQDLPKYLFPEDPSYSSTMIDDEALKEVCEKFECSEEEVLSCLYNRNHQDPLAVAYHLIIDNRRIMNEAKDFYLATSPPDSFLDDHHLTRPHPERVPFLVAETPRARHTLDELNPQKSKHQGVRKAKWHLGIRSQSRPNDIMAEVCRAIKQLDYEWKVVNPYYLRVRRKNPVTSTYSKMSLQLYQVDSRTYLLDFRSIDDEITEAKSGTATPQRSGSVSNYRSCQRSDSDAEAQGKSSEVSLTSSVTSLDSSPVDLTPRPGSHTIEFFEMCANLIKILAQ
Sequence of NEK7, construct: Full length (Q8TDX7 whole entry, looked up): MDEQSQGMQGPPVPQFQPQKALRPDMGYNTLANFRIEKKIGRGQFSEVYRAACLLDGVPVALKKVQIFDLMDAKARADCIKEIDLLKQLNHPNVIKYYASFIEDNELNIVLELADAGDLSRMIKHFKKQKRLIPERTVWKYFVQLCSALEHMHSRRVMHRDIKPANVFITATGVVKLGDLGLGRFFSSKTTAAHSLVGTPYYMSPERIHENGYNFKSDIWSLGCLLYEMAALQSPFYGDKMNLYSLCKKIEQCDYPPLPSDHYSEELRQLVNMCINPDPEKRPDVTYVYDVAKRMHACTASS

MYO3B, construct: aa1-326 (from UniProt Q8WXR4)
relative phosphorylation
Details | at +1 | at +2 | at +3 | at +4 | at -1 | at -2 | at -3 | at -4 | at -5
A fixed | 0.835 | 0.824 | 0.907 | 0.917 | 1.11 | 0.997 | 1.06 | 0.977 | 1.15
D fixed | 0.195 | 0.346 | 0.286 | 0.408 | 0.679 | 0.489 | 0.538 | 0.954 | 0.81
E fixed | 0.182 | 0.272 | 0.222 | 0.412 | 0.633 | 0.316 | 0.576 | 0.933 | 0.843
F fixed | 0.583 | 0.641 | 0.831 | 0.682 | 0.908 | 1.44 | 1.07 | 1.05 | 1.01
G fixed | 0.936 | 0.951 | 1.04 | 1.24 | 1.61 | 1.32 | 1.8 | 1.33 | 1.38
H fixed | 0.628 | 1.1 | 1.01 | 1.03 | 1.18 | 1.25 | 1.13 | 1.14 | 1.08
I fixed | 1.1 | 0.515 | 0.595 | 0.683 | 0.38 | 0.578 | 0.728 | 0.783 | 0.787
K fixed | 2.3 | 2.56 | 2.29 | 2.28 | 0.958 | 0.787 | 0.946 | 1.04 | 1.14
L fixed | 1.53 | 0.724 | 0.838 | 0.663 | 0.945 | 0.713 | 0.901 | 0.82 | 0.757
M fixed | 1.57 | 0.756 | 0.71 | 0.714 | 1.33 | 0.857 | 1.11 | 0.939 | 0.947
N fixed | 0.754 | 0.835 | 0.911 | 1.03 | 1.28 | 0.95 | 0.939 | 0.96 | 0.899
P fixed | 0.276 | 0.96 | 1.18 | 1.05 | 0.601 | 0.622 | 0.891 | 0.953 | 1.27
Q fixed | 1.08 | 0.752 | 0.736 | 0.988 | 1.04 | 0.816 | 0.823 | 0.946 | 0.856
R fixed | 2.66 | 3.56 | 3.06 | 2.38 | 1.58 | 1.72 | 1.18 | 1.13 | 1.15
V fixed | 0.809 | 0.552 | 0.671 | 0.702 | 0.495 | 0.597 | 0.582 | 0.769 | 0.879
W fixed | 0.791 | 0.737 | 0.807 | 1 | 0.856 | 1.52 | 1.28 | 1.17 | 0.993
Y fixed | 0.781 | 0.919 | 0.902 | 0.826 | 1.41 | 2.03 | 1.44 | 1.1 | 1.04
pThr fixed | 0.449 | 0.389 | 0.599 | 0.309 | 0.335 | 0.494 | 0.678 | 0.852 | 0.895
pTyr fixed | 0.308 | 0.266 | 0.551 | 0.392 | 1.24 | 0.596 | 0.873 | 0.888 | 1.1

NEK7, construct: Full length (from UniProt Q8TDX7)
relative phosphorylation
Details | at +1 | at +2 | at +3 | at +4 | at -1 | at -2 | at -3 | at -4 | at -5
A fixed | 0.653 | 1.05 | 0.923 | 0.86 | 1.05 | 1.12 | 0.975 | 1.02 | 1.07
D fixed | 0.327 | 0.61 | 0.66 | 0.722 | 1.29 | 2.31 | 0.65 | 1.91 | 1.83
E fixed | 0.267 | 0.376 | 0.597 | 0.747 | 1.42 | 1.8 | 0.583 | 1.28 | 1.43
F fixed | 1.54 | 0.717 | 1.21 | 0.846 | 0.646 | 0.87 | 1.94 | 0.839 | 0.989
G fixed | 0.827 | 1.12 | 1.28 | 1.18 | 0.713 | 1.4 | 0.853 | 1.05 | 0.972
H fixed | 1.16 | 1.38 | 1.21 | 1.11 | 1.12 | 1.3 | 0.755 | 1.03 | 1.06
I fixed | 1.28 | 0.812 | 0.957 | 0.919 | 0.569 | 0.433 | 0.494 | 0.647 | 0.831
K fixed | 0.588 | 1.47 | 1.24 | 1.3 | 1.34 | 0.625 | 0.446 | 0.82 | 0.842
L fixed | 1.18 | 0.549 | 1.1 | 0.895 | 1.02 | 0.718 | 2.39 | 0.832 | 0.771
M fixed | 1.78 | 0.693 | 0.899 | 0.948 | 1.03 | 0.973 | 1.46 | 0.823 | 0.703
N fixed | 1 | 1.63 | 0.833 | 0.907 | 1.22 | 1.47 | 0.705 | 1.35 | 1.15
P fixed | 0.242 | 0.691 | 0.703 | 1.09 | 0.234 | 0.356 | 1.3 | 0.918 | 0.886
Q fixed | 1.33 | 0.933 | 0.813 | 0.986 | 1.52 | 0.951 | 0.628 | 0.889 | 0.938
R fixed | 0.865 | 2.1 | 1.08 | 1.16 | 1.21 | 0.626 | 0.652 | 0.959 | 0.878
V fixed | 1.05 | 0.905 | 0.889 | 0.846 | 0.901 | 0.372 | 0.538 | 0.613 | 0.8
W fixed | 1.47 | 0.94 | 1.58 | 1.46 | 0.908 | 0.859 | 1.4 | 1.23 | 1.1
Y fixed | 1.44 | 1.02 | 1.02 | 1.02 | 0.796 | 0.822 | 1.23 | 0.78 | 0.754
pThr fixed | 0.701 | 0.607 | 0.62 | 0.842 | 0.624 | 1 | 0.973 | 1.15 | 0.979
pTyr fixed | 0.816 | 0.62 | 0.836 | 0.681 | 1.68 | 1.6 | 1.12 | 0.861 | 1.12

PKN1, construct: aa460-982 (from UniProt Q16512)
relative phosphorylation
Details | at +1 | at +2 | at +3 | at +4 | at -1 | at -2 | at -3 | at -4 | at -5
A fixed | 0.528 | 0.745 | 0.906 | 1 | 1.03 | 1.13 | 0.67 | 1.01 | 0.865
D fixed | 0.183 | 0.162 | 0.281 | 0.393 | 0.581 | 0.2 | 0.126 | 0.354 | 0.262
E fixed | 0.171 | 0.149 | 0.352 | 0.372 | 0.509 | 0.254 | 0.14 | 0.536 | 0.256
F fixed | 4.71 | 0.739 | 1.14 | 0.743 | 1.03 | 0.85 | 0.456 | 1.06 | 1.19
G fixed | 0.361 | 0.397 | 0.783 | 0.98 | 1 | 0.777 | 0.412 | 1.14 | 0.789
H fixed | 0.564 | 1.34 | 1.02 | 1.22 | 1.22 | 1.16 | 0.907 | 1.03 | 0.761
I fixed | 1.26 | 0.785 | 1.04 | 0.753 | 0.535 | 0.557 | 0.407 | 0.88 | 1.6
K fixed | 0.784 | 2.16 | 1.46 | 2.04 | 1.53 | 2 | 2 | 1.73 | 1.2
L fixed | 1.13 | 1.1 | 1.06 | 0.794 | 0.973 | 0.638 | 0.455 | 0.922 | 1.84
M fixed | 2.16 | 0.896 | 1.06 | 0.819 | 1.05 | 0.89 | 0.483 | 1.07 | 0.967
N fixed | 0.483 | 0.575 | 0.629 | 0.929 | 1.16 | 0.926 | 0.315 | 0.717 | 0.49
P fixed | 0.266 | 0.297 | 0.493 | 1.4 | 1.16 | 0.347 | 0.328 | 0.59 | 0.921
Q fixed | 0.62 | 0.578 | 0.736 | 0.996 | 0.947 | 1.05 | 0.585 | 0.842 | 0.643
R fixed | 0.999 | 4.44 | 2 | 1.86 | 1.51 | 3.36 | 8.17 | 2.01 | 1.61
V fixed | 0.852 | 0.749 | 1.02 | 0.678 | 0.622 | 0.781 | 0.373 | 0.991 | 1.55
W fixed | 0.889 | 0.675 | 1.5 | 1.15 | 0.9 | 1.1 | 0.58 | 0.992 | 0.926
Y fixed | 1.04 | 1.22 | 1.53 | 0.87 | 1.24 | 0.978 | 0.6 | 1.13 | 1.14
pThr fixed | 0.476 | 0.43 | 0.412 | 0.443 | 0.302 | 0.296 | 0.259 | 0.551 | 0.368
pTyr fixed | 0.314 | 0.354 | 0.567 | 0.384 | 0.388 | 0.266 | 0.215 | 0.412 | 0.514

PRKAA1, construct: Full length (from UniProt Q13131)
relative phosphorylation
Details | at +1 | at +2 | at +3 | at +4 | at -1 | at -2 | at -3 | at -4 | at -5
A fixed | 0.927 | 1.41 | 0.812 | 0.574 | 1.05 | 1.27 | 0.845 | 1.21 | 0.908
D fixed | 0.609 | 0.529 | 1.53 | 0.606 | 0.666 | 0.413 | 0.32 | 0.497 | 0.381
E fixed | 0.781 | 0.496 | 0.935 | 0.516 | 0.578 | 0.475 | 0.453 | 0.63 | 0.374
F fixed | 1.63 | 0.899 | 1.1 | 1.25 | 0.643 | 0.718 | 0.516 | 0.682 | 1.2
G fixed | 0.773 | 0.759 | 0.902 | 0.659 | 1.4 | 1.05 | 0.889 | 1.2 | 0.857
H fixed | 1.18 | 1.48 | 1.5 | 0.757 | 1.11 | 1.28 | 1.28 | 1.19 | 0.816
I fixed | 0.75 | 1.38 | 0.705 | 2.17 | 0.379 | 0.944 | 0.402 | 0.659 | 1.41
K fixed | 1 | 0.723 | 1.15 | 0.753 | 1.93 | 1.73 | 2.54 | 2.1 | 1.35
L fixed | 0.813 | 1.23 | 0.803 | 2.67 | 0.63 | 0.541 | 0.45 | 0.643 | 1.63
M fixed | 1.49 | 0.855 | 0.833 | 1.89 | 0.972 | 0.638 | 0.609 | 0.895 | 1.5
N fixed | 0.86 | 1.08 | 1.55 | 0.775 | 1.12 | 1.7 | 0.869 | 0.947 | 0.724
P fixed | 0.231 | 1.31 | 0.39 | 0.767 | 1.32 | 0.783 | 1.04 | 1.19 | 0.944
Q fixed | 1.23 | 0.893 | 0.996 | 0.704 | 1.31 | 0.92 | 0.879 | 0.888 | 0.847
R fixed | 1.24 | 0.649 | 1.09 | 0.691 | 1.66 | 1.81 | 4.12 | 2.17 | 1.71
V fixed | 0.893 | 1.48 | 0.65 | 0.969 | 0.589 | 1.3 | 0.477 | 0.728 | 0.784
W fixed | 1.35 | 0.922 | 1.19 | 0.693 | 0.782 | 0.705 | 0.633 | 0.681 | 0.731
Y fixed | 1.23 | 0.897 | 0.866 | 0.556 | 0.87 | 0.716 | 0.677 | 0.705 | 0.836
pThr fixed | 0.737 | 0.513 | 0.427 | 0.606 | 0.418 | 0.679 | 0.632 | 0.724 | 0.726
pTyr fixed | 0.604 | 0.5 | 0.601 | 0.485 | 0.685 | 0.568 | 0.51 | 0.492 | 0.778
